# Assay results reported in the DeepSol protein solubility set.
# Assay: soluble on expression in E. coli; label from the status in PepcDB or PDB records
row,Sequence,soluble on expression in E. coli
1,MIVLIDGPSGSGKTTFAGFLGEILGMRIVHFDDLYPGWHGLAAGVKIVTALLEGAGGYHRWDWANNVMGPWVEVPERNLIIEGVGSLAPSVVRAARQHGPVLTMLFDGPEQMRRSRALARDPFYEPWWEMWAEQEARHFATVETPDVTRGYP,not soluble
2,MNKVLINDTTLRDGEQAAGVVFTLEEKVAIAKFLDTIGVPELEVGIPAMGEEEMRAICAISNLGLKANLLAWNRAVISDIKASVACGMERVHIAIPVSGIQIAAKFHGQWRVSLQRLKDCISFAVDQGLWVAVGGEDSSRADENFLLDVALYAQEWGASRFRFCDTVGVLDPFTTYGKVKLLVSALTIPVEVHTHNDFGMATANALAGIKAGASSVNTTVIGLGERAGNAALEEVVMAIKRIYGVDMGIDTPRLLELSQLVAAASGANVPPWKAIVGENTFAHESGIHAHGVLQNPDTYEPFAPEEVGWERRLVVGKHSGRHSVSNLLEQHGLEHHHHHH,soluble
3,MLQTLSTHLSSTSTSTTTPLLLLSKPFLSPSAKSQLSHSKPFNFPRTLKPISYYKPPMANILSKLGFGTRSPDPSTMDPTIPQGPDDDLPAPGQQFAQFGAGCFWGVELAFQRVPGVTKTEVGYTQGLLHNPTYEDVCTGTTNHNEVVRVQYDPKECSFDTLIDVLWARHDPTTLNRQGNDVGTQYRSGIYYYTPEQEKAAKESLERQQKLLNRKIVTEILPAKKFYRAEEYHQQYLAKGGRFGFMQSAEKGCNDPIRCYG,soluble
4,MNSNEDIHEERIEVPRTPHQTQPEKDSDRIALRDEISVPEGDEKAYSDEKVEMATTNASSNFGSNESAKDGESIGAFSNPHEALMQSKLREESQSKTILPSDDLSQQLETEESKVEEALKRITSPPLPPRADCIEESASALKSSLPPVLAGNKNDQAPLDRPQLPPRQVVNAETLHLKAPHGNATPSKSPTSAVGNSSSSTPPTLPPRRIEDPLDLAAQKHFLASTFKRNMLFYKSEDNSIKCDLDKNILNLKEDSKKINNNEIPEEVSSFWLKVIGDYQNILINDIETLHFQLSRGIPAAYRLVVWQLVSYAKSKSFDPIYETYLTEMAPFDVQEFENQLKMMDEVPSEYVKRISNVLKAYLLFDPECEFSTDIAYIINMILDVCEEEANAFGLLVRLMKVYGLRLLFLPSASEIDILCYKFDRLVEEFYPEIHNHMVEKGVRSSMFLPGFFTTLFQKKLPTEIQPRIGDMVFLEGIDSIMRILATLLSNSRDHLLKMGFDDMLELLKSGLLDAYIKQNDGTRGDTLLSNECMDKLLQDSMMKVAITPKTMKKYSSEYEEIHRLDNEKEVQYKSITEKNLHLQKHVRKLENDYTSLNREHVTIANELVKNRLNIESVLNENNGYKLQILDLKKKLDSEKKKQVLGVYVPNDLKKDLEETMKKNTQVMDENLKLQDRISELERLIEEIKTANKNGTLFEYSNSKNNPLGAGWSGFKKVFK,soluble
5,MSLKENKYDDKHFFEQYSQMPRSKEGLKAAGEWHELKKMLPDFNQKTVLDLGCGFGWHCIYAAEHGAKKVLGIDLSERMLTEAKRKTTSPVVCYEQKAIEDIAIEPDAYNVVLSSLALHYIASFDDICKKVYINLKSSGSFIFSVEHPVFTADGRQDWYTDETGNKLHWPVDRYFNESMRTSHFLGEDVQKYHRTVTTYIQTLLKNGFQINSVIEPEPAPELKDLPEMQDEYRRPMMLLISATKQEGHHHHHH,soluble
6,MSLPIDEHVNAVKTVVVPAAGLGTRFLPATKTVPKELLPVVDTPGIELIAAEAAELGATRLAIITAPNKAGVLAHFERSSELEETLMERGKTDQVEIIRRAADLIKAVPVTQDKPLGLGHAVGLAESVLDDDEDVVAVMLPDDLVLPTGVMERMAQVRAEFGGSVLCAVEVSEADVSKYGIFEIEADTKDSDVKKVKGMVEKPAIEDAPSRLAATGRYLLDRKIFDALRRITPGAGGELQLTDAIDLLIDEGHPVHIVIHQGKRHDLGNPGGYIPACVDFGLSHPVYGAQLKDAIKQILAEHEAAERIADDSQVKLEHHHHHH,soluble
7,MQGVQEQIEELQTKLAFQELTVEELNQEVIKLNQLVAHQQHQIQLLIGKLQAIEPSNMATQAEETPPPHY,soluble
8,MPKVRTKDLIEQFQLELISGEEGIHRPIDTSDLSRPGIEMAGFFTYYPADRVQLLGKTELTFFDTLTSDQKQERMKALCTEETPCIIVTRNQDVPDELLQASRESGMPLLRSSQTTTRLSSRLTNYLEGKLAPTTAVHGVLVDIYGVGVLITGQSGVGKSETALELVKRGHRLVADDSVEIRQEDEDMLVGSSPDLIEHLLEIRGLGIINVMTLFGAGAVRNYKRITLVINLEIWDQKKNYDRLGLDEEKMKIIDTELTKITLPVRPGRNLAVIIEVAAMNFRLKRMGVNAAQQFSERLMSAIELGNQE,not soluble
9,MGSDKIHHHHHHMLDKSRLSRFKTQIDSQTEIAKFDALAKEWRDPHGKFKHVLSFNQTRLTAIEDQIASHFGRDLTQDIPFDGLSLLDIGCGVGLLCEPLASQGARVTGIDASEHNITLAHRHANSWSIPIEYRHCLAGDLPREQPQYDVILNTEVIEHVEDQAALVASCCDLLKPGGLMVMATLNRTLRSYLIGIIGAEYIMRYLPTGTHDWHHFVTPQELDEMLTPHGLSTKGVEGMAFNPFTRRWKITSNSAVNYLLYASKPIPGVLEA,not soluble
10,MGSDKIHHHHHHMKGKHKIVVKNNRLHYEFEIKRNITIIKGDSATGKTTLINMIRQFANLGNASGIEIECDAPCTVLEGNLWQMLLKNLSGNIIFIDEENQFIRQQEFAELVKASDNYFVIITRENLYNLPYSVEEIYGLYSSGKYQNTKQIYQEMYHIYPLNQDLSCKPDKIIVEDTNSGYEYFKAISKEKNIVCESAGGKTKIFAMLEQLKAETESICVIADGAAIGPEMDALYKMSVEKGNIKLYLPESFEWIILSSELLEDKEIKDIIDKPENYIESQEYFSWERFFTKLLVDKTAGTYLKYQKGKLNPTYLHEKNKNIILKNIKNSIDF,not soluble
11,MESAKSIIGGHQNVILMRHGDRLDNFEPLWTSTAARPWDPPLAQDGKDRAFRTGQRIRSQLGVPIHRVFVSPFLRCIQTASEVVAALSAVDFDPIAMSSKDVLSIDNTKIKVAIEFGLSEIPHPIFIKSEVAPKDGKFDFKISDLEAMFPEGTVDSNVDMVYKEVPEWGESAQAFEDRYYKTVKILAEKYPSENLLLVTHWGAVSVAFYNYFKDATKYVVDYCGSVEMRRQILNGDGFGKFEVVTSHGVSYKYTKIPVHDHVVVSRQSPL,soluble
12,MGSDKIHHHHHHMGESASGSDRSQKARGAFRVRSLQIRYKTSRPEIRQSWRSMLQRERPCKGGREDFEKGRRGNFSSPLRSVSLQGDCRTQLRSGKEALQFRETRRHTEQGGITMKVVVGIPSYNNAETISHVARTAAQGIVDFFDGDGMIVNSDGGSADGTRERFMETDTFGLPKESFVYEGLPGKGSAMRAIMEFALKQDAEAVVFLDADLRSVKPWWVERLAGPVLKGEADYVTPFYLRHRFDGTITNNVCFPMTAVLYGKKVRQPIGGDFGVGRKLLEIYLGKPKEIWNTDVARFGIDIWMTTTAINESGRVVQAALGTKVHDVKDPGKHLKGMFLQVVGTLFELVITYENVWKEIWKIEDVPIYGETPQEEVPSMSIDIGNLKKLARETLEEVEYIDRGILSEVKESGTLSLSSWVDTLYRSAVQYRKTRDKKVVENLLPFYFARTARFAEEVKSLSDEEAERYVYEQLDVFLEKKHSLREEWKVEDKR,not soluble
13,MTAQTTHTVDAVVIGAGFGGIYAVHKLHHELGLTTVGFDKADGPGGTWYWNRYPGALSDTESHLYRFSFDRDLLQESTWKTTYITQPEILEYLEDVVDRFDLRRHFKFGTEVTSALYLDDENLWEVTTDHGEVYRAKYVVNAVGLLSAINFPNLPGLDTFEGETIHTAAWPEGKSLAGRRVGVIGTGSTGQQVITSLAPEVEHLTVFVRTPQYSVPVGNRPVNPEQIAEIKADYDRIWERAKNSAVAFGFEESTLPAMSVSEEERNRIFQEAWDHGGGFRFMFGTFGDIATDEAANEAAASFIRAKVAEIIEDPETARKLMPKGLFAKRPLCDSGYYEVYNRPNVEAVAIKENPIREVTAKGVVTEDGVLHELDVLVFATGFDAVDGNYRRIEIRGRDGLHINDHWDGQPTSYLGVSTANFPNWFMVLGPNGPFTNLPPSIETQVEWISDTIGYAERNGVRAIEPTPEAEAEWTETCTEIANATLFTKGDSWIFGANIPGKKPSVLFYLGGLRNYRAVMAEVAADGYRGFEVKSAEMVTV,soluble
14,MSSKFRTEDAWIIGQRMAARLDHEAYPLHKAAFFNDTHSIVQLLRAGRSLSEKDTHGNTALHIATMLGHREAIAILLANNAPVRIKNIDGWNPLMESVSYGDRQIITEMLRKLKTQTNEKMSRGKPHLMKMFQDLGDFYMEFKWDFQSWIPLLSRILPSDVCLIYKKGNLLRMDTTLADFSERNWERGDITFLFNVDAPPGEQLVVMDNKTKVFQRGRREESEAEIDEEVDVLMSTDIVNAHMSTKTVGFKQAYSGWVFKHAREEQMGDFPVNFYSVEGLKLTTRKRREHLTSDDVKKNKSILHSLTSGHTVNDDEFSVEPPTPKIATPTGRLPTTWEEYSGAAPGAPPQMGRPQIVKTNEKQFKALVGMSEEFPLSVDVLVDLLEVVAPFKHLDKLRRFCSARLPPGFPVCVEIPLLATIAAKVTFQKFQFTNDIQDKMFTIPTSYREDPTRFPDL,not soluble
15,MGSDKIHHHHHHMTQMEMARKGVVSDEMKKVAEYEGVDVEIVRQKLAEGRAVLPKNKLHRIERPMIVGEGFSVKVNANIGTSQGFSSLEEEKEKARVAIEYGADSLMVLSTWGDLREIRRAIVEMSPVPVGSVPIYDSAVRSYQMKKNVVDFSEKDFFDMVIAHAEDGIDFMTIHVGVTRRVLDRIKSSRRVLKIVSRGGAIIAGWMIKNNKENPFYEHFDELLDIAKDYDITLSLGDGMRPGAVVDASDAQQFEELFVMGELVERAREKGVQVMLEGPGHVPLNEVEMNVRLMKKIGKGAPIFLLGPLPTDRAMGYDHIACAIGGALAGYYGADFLCYVTPSEHISLPDVEDVREGVIASKIAAIVADVARGNKKAWELEKKMALARKNFDWETMFSLSLGKDVAKKKYEERPYPDKGCSMCGPFCAIKIAEEFS,not soluble
16,MVEFRNEVSHQWTRRHTLRKFRAGMLSRDSLCDADFVLVTASKFHGSRVPTPCPVCDSDQLRHVLWVYGESLGRASGSARTMEEIVTFAQSGKEFTVHTVEVCPDCRWNHLLNSVTAMPQ,not soluble
17,MGSDKIHHHHHHMSYLTEKLREEKVFKDPVHGYVHVSDKIIWDLIATKEFQRLRRIHQLGTTSLTFHGAEHSRFNHSLGVYEIVRQIIDVTFANEPQLDPEERMVALCAALLHDLGHGPFSHAFEKVFGTDHESYTQEIIIGDTEVNKILMRAGEEFPLKVAAIIKKNYPNQTLVKLISSQIDADRMDYLLRDAYYTGVSYGKFDLERILRVLRPSPDGNGVIVKYSGMHAVEDYIMSRYQMYQQVYFHPVSRSGEVLLWKILERAKKLYCAGYEFQATPIQVLPFFLNEVSLKDYIVLDDIVLMYYFSIWQEEEDPILSDLCSRFLNRRLLRYINYDPKEDAELYAELKGLLEKADIDPSYYLVIDSSSDLPYDYYLPGVGSGKDPIKLLMGNGELRELSTESPVVEAIGRERRTDIKLYYPLDFIESGHVEEAITERMIALIHAHSLKEK,not soluble
18,MAHHHHHHMRIHHAFFRQSCRIMRGIDSARSTPTFVNGTDGMGTIHMLFSKRTHSNTTHSNADSAYMPGSNLHVEHPIVQLPARSLWCKQYPLDISLVRRGEFNDMIGRVRAARHYYQYPSLCAPKIGWNVQMFTLFDGTVFINPINLDALEVEEIAKQKSITFVEAEALWMEKKRREGKTCFAWEPCASCCFLLHFIERPSTVRVRAIAEDGNPFEVTLDKMRARMALHELDHLNGILFTRRIPDTSHVVPLEGFSTMSEWPDDYPSLEARSTFLYTTFTPPYTFITDSVEDAQLLDRKFEDGIYPGCEHDRRMRIESAAFEELQRAQWRMEKTREENSEEYDGVEGEVDEEDQEHCEETAAGGVAVKDNAPQ,not soluble
